Residue numbers refer to the chain shown, from its start. Where two headings read alike, the source gives them in different places.
B1: variant 2-5 (antibody, V domains shown)
VH: EVQLLESGGGLVQPGGSLRLSCAASGFTFSDFAMAWVRQAPGKGLEWVSAISGSGDITYYADSVKGRFTISRDNSKNTLYLQMNSLRAEDTAVYYCAREADGLHSPWHFDLWGQGTLVTVSS
VL: DIQMTQSPSSLSASVGDRVTITCRASQSIHTYLNWYQQKPGKAPKLLIYAASALASGVPSRFSGSGSGTDFTLTISSLQPEDFATYYCQQSYSAPPYTFGQGTKVEIK
B2: 2-8 (antibody, V domains shown)
VH: B1 VH
VL: B1 VL with H30D
notes: also called variant 2-8
B3: 2-12 (antibody, V domains shown)
VH: EVQLLESGGGLVQPGGSLRLSCAASGFTFSDYPMNWVRQAPGKGLEWVSTISGSGGITFYADSVKGRFTISRDNSKNTLYLQMNSLRAEDTAVYYCVRHDEYSFDYWGQGTLVTVSS
VL: B1 VL with H30D, T31N, A50G, A51V, A55Q, Y92H, T98F
notes: also called variant 2-12
B4: SARS-CoV-2 S1 variant 2-5 (antibody, V domains shown)
VH: B1 VH
VL: B1 VL
B5: variant 2-8 (antibody, V domains shown)
VH: B1 VH
VL: B1 VL with H30D
B6: 2-4 (antibody, V domains shown)
VH: B1 VH
VL: B1 VL with H30D
notes: also called variant 2-4
B7: 2-5 (antibody, V domains shown)
VH: B1 VH
VL: B1 VL
notes: also called variant 2-5
B8: variant 2-2 (antibody, V domains shown)
VH: EVQLLESGGGLVQPGGSLRLSCAASGFTFSRHAMNWVRQAPGKGLEWVSGISGSGDETYYADSVKGRFTISRDNSKNTLYLQMNSLRAEDTAVYYCARDLPASYYDSSGYYWHNGMDVWGQGTLVTVSS
VL: DIQMTQSPSSLSASVGDRVTITCRASQTINTYLNWYQQKPGKAPKLLIYSASTLQSGVPSRFSGSGSGTDFTLTISSLQPEDFATYYCQQSYSTFTFGQGTKVEIK
B9: SARS-CoV-2 S1 variant 2-2 (antibody, V domains shown)
VH: B8 VH
VL: B8 VL
B10: 2-2 (antibody, V domains shown)
VH: B8 VH
VL: B8 VL
notes: also called variant 2-2
B11: 2-9 (antibody, V domains shown)
VH: EVQLLESGGGLVQPGGSLRLSCAASGFTFPRYAMSWVRQAPGKGLEWVSTISGSGSTTYYADSVKGRFTISRDNSKNTLYLQMNSLRAEDTAVYYCARLIDAFDIWGQGTLVTVSS
VL: DIQMTQSPSSLSASVGDRVTITCRASQRIGTYLNWYQQKPGKAPKLLIYAASNLEGGVPSRFSGSGSGTDFTLTISSLQPEDFATYYCQQNYSTTWTFGQGTKVEIK
notes: also called variant 2-9
B12: variant 2-9 (antibody, V domains shown)
VH: B11 VH
VL: B11 VL

Legend:
[1] = target: T1, SARS-CoV-2 spike on live SARS-CoV-2 virus (SARS-CoV-2, UniProt P0DTC2 14-1273); assay: cell-based or functional assay
[2] = target: T1, SARS-CoV-2 spike on live SARS-CoV-2 …; assay: cell-based or functional assay; remark: listed apart in the source
[3] = target: SARS-CoV-2 spike on VSV-pseudotype SARS-CoV-2 (SARS-CoV-2, UniProt P0DTC2 14-1273); assay: cell-based or functional assay
[4] = target: T2, SARS-CoV-2 S protein trimer (SARS-CoV-2, UniProt P0DTC2 14-1208); assay: Carterra SPR, DB format, S trimer
[5] = target: T2, SARS-CoV-2 S protein trimer; assay: Carterra SPR, direct capture (DC), S trimer
[6] = target: T2, SARS-CoV-2 S protein trimer; assay: Carterra SPR, Fc capture, S trimer
[7] = target: T3, Acro COVID S1 (S1N-C82E8) (SARS-CoV-2, UniProt P0DTC2 16-685); assay: phage ELISA
T3 construct: domain: subunit 1 (S1)

[8] = target: T3, Acro COVID S1 (S1N-C82E8); assay: phage ELISA; remark: listed apart in the source
[9] = target: Acro COVID S1 (S1N-C82E8) (SARS-CoV-2, UniProt P0DTC2 16-685); assay: phage ELISA

Binder | Kd [4] | Kd [5] | Kd [6] | further results
B1 | – | – | – | EC50 [1]: 18.3 µg/mL; EC80 [2]: 106 µg/mL; NC50 [3]: 18.3 µg/mL
B2 | 115 nM | 47.4 nM | – | –
B3 | 6.4 nM | 63.8 nM | 3.2 nM | –
B4 | – | – | – | ELISA fold over background [7]: 38.3 fold; ELISA fold over background [8]: 38.3 fold
B5 | – | – | – | specificity ELISA, fold over background [9]: 35.9 fold over background
B6 | 4340 nM | – | – | –
B7 | – | 17.3 nM | 90.2 nM | –
B8 | – | – | – | EC50 [1]: 67.6 µg/mL; EC80 [2]: 355 µg/mL; NC50 [3]: 67.6 µg/mL
B9 | – | – | – | ELISA fold over background [7]: 39.4 fold; ELISA fold over background [8]: 39.4 fold
B10 | 1.2 nM | 1.4 nM | 0.8 nM | –
B11 | – | – | 23600 nM | –
B12 | – | – | – | specificity ELISA, fold over background [9]: 24.1 fold over background

From US20210355194A1 (TWIST BIOSCIENCE, published 2021)
